The source of these data is patent publication US20110064670A1, “METHOD TO IDENTIFY A PATIENT WITH AN INCREASED LIKELIHOOD OF RESPONDING TO AN ANTI-CANCER AGENT” (Genentech, Inc., priority 2009, published 2011).

The test system of this assay is non-tumor bearing mice. Nature of the assay: Lymph pulsation frequency assay in non-tumor bearing mice. The conditions noted are these: acute injection, n=6 animals/group (FIG. 6B). It is filed as in vivo, mouse. As to the method: Female Balb-c nude mice from Charles River Laboratory were used at 6-8 weeks of age. To establish baseline pulsation frequency and lymph node loading rates we imaged non-tumor bearing mice. In some cases mice were longitudinally imaged for pulsation, i.e., the same mouse was imaged daily over a 7-day period. Mice were anesthetized with 2% Isoflurane and maintained at 37° C. throughout experiments. A PulseOx probe was attached to the thigh (opposing injection site) to monitor heart rate before running pulsation assays.
For all experiments fluorescent dye injections were performed with 5 mg AlexaFluor680 conjugated to dextran 70 kd (MolecularProbes) in 1 ml sterile PBS. […]
Epi-fluorescence Microscopy Pulsatile flow activity was observed using an epifluorescence microscope (Prairie Technologies) equipped with a Cy5.5 Red filter set (Chroma), Halogen light source (ExFo Excite Series 120), 4× objective lens (Olympus) and a charge coupled device (CCD) camera (S97827, Olympus). […] Pulsation and heart rates were monitored (PulseOx) for stability for 10 minutes before video capture. […]
Digital videos (5 minutes) of pulsation were acquired with PictureFrame software (Optronics) using time lapse settings (282 ms exposure, no inter-frame delay, 5 minutes total acquisition time). Data was analyzed off-line from recorded time lapse videos. […]

B1: recombinant VEGF-C protein: recombinant VEGF-C protein injected acutely in non-tumor bearing mice (protein, UniProt P97953 108-223, looked up)
Vascular endothelial growth …: AHYNTEILKSIDNEWRKTQCMPREVCIDVGKEFGAATNTFFKPPCVSVYRCGGCCNSEGLQCMNTSTGYLSKTLFEITVPLSQGPKPVTISFANHTSCRCMSKLDVYRQVHSIIRR
As to B1, the lymph pulsation frequency result is listed as “does not result in any significant change”.
